{
  "source": "IntAct's records for PubMed 21441902",
  "parents": {"B1": {"name": "mRNA export factor GLE1 (Saccharomyces cerevisiae), Q12315 (parent)", "chain": "MRFVFDEVFNSDTDSPEFEETCSTTSSTSSQCPTPEPSPAIKLPSFTKVGTKKLVNESVVILDPALENALRDLNLQSKLIPINEPIVAASSIIVPHSTNMPLPRASHSSLLDNAKNSNATAPLLEAIEESFQRKMQNLVLANQKEIQSIRENKRRVEEQRKRKEEEERKRKEAEEKAKREQELLRQKKDEEERKRKEAEAKLAQQKQEEERKKIEEQNEKERQLKKEHEAKLLQQKDKLGKAVTNFDKISKMFWHYKDKIAQIKQDIVLPIKKADVNVRNLLSRHKRKINPKFGQLTNSNQQLFKIQNELTQLINDTKGDSLAYHWILNFIAKAVVHQAETEVRVKPESALPLGKLTLYLLVQFPELQELFMARLVKKCPFVIGFTCEIDTEKGRQNMGWKRNNENKWEDNTSYDERMGGILSLFAIITRLQLPQEFITTTSHPFPIALSWHILARICNTPLNLITNTHFVILGSWWDAAAVQFLQAYGNQASKLLILIGEELTSRMAEKKYVGAARLRILLEAWQNNNMESFPEMSP", "partner": "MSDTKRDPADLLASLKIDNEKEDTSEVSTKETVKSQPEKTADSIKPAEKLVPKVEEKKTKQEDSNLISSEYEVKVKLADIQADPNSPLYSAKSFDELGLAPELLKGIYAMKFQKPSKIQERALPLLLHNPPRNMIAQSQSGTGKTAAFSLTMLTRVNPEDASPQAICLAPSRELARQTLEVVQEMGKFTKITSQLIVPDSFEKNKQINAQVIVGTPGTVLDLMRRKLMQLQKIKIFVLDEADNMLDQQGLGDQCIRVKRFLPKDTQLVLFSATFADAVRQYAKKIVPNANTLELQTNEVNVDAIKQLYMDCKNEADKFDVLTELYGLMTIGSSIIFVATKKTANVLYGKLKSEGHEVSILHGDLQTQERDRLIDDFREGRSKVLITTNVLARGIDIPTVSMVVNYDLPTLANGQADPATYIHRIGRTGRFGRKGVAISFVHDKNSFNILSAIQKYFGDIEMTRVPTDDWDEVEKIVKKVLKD"}, "B2": {"name": "ATP-dependent RNA helicase DBP5 (Saccharomyces cerevisiae), P20449 (parent)", "chain": "B1 partner", "partner": "B1 chain"}},
  "data": [
    {"variants_of": "B1", "settings": "with dbp5_yeast DBP5, P20449", "values": [
      {"variant": "MRFVFDEVFNSDTDSPEFEETCSTTSSTSSQCPTPEPSPAIKLPSFTKVGTKKLVNESVVILDPALENALRDLNLQSKLIPINEPIVAASSIIVPHSTNMPLPRASHSSLLDNAKNSNATAPLLEAIEESFQRKMQNLVLANQKEIQSIRENKRRVEEQRKRKEEEERKRKEAEEKAKREQELLRQKKDEEERKRKEAEAKLAQQKQEEERKKIEEQNEKERQLKKEHEAKLLQQKDKLGKAVTNFDKISKMFWHYKDKIAQIKQDIVLPIKKADVNVRNLLSRHKRKINPKFGQLTNSNQQLFKIQNELTQLINDTKGDSLAYHWILNFIAKAVVHQAETEVRVKPESALPLGKLTLYLLVQFPELQELFMARLVKKCPFVIGFTCEIDTEKGRQNMGWKRNNENKWEDNTSYDERMGGILSLFAIITRLQLPQEFITTTSHPFPIALSWHILARICNTPLNLITNTHFVILGSWWDAAAVQFLQAYGNQASKLLILIGEELTSRMAEKKYDGADRLRDLLEAWQNNNMESFPEMSP", "note": "[V513D;A516D;I520D]", "effect of a mutation on the interaction": "disrupting interaction"}
    ]},
    {"variants_of": "B2", "settings": "with gle1_yeast GLE1, Q12315", "values": [
      {"variant": "MSDTKRDPADLLASLKIDNEKEDTSEVSTKETVKSQPEKTADSIKPAEKLVPKVEEKKTKQEDSNLISSEYEVKVKLADIQADPNSPLYSAKSFDELGLAPELLKGIYAMKFQKPSKIQERALPLLLHNPPRNMIAQSQSGTGKTAAFSLTMLTRVNPEDASPQAICLAPSRELARQTLEVVQEMGKFTKITSQLIVPDSFEKNKQINAQVIVGTPGTVLDLMRRKLMQLQKIKIFVLDEADNMLDQQGLGDQCIRVKRFLPKDTQLVLFSATFADAVRQYAKKIVPNANTLELQTNEVNVDAIKQLYMDCKNEADKFDVLTELYGVMTIGSSIIFVATKKTANVLYGKLKSEGHEVSILHGDLQTQERDRLIDDFREGRSKVLITTNVLARGIDIPTVSMVVNYDLPTLANGQADPATYIHRIGRTGRFGRKGVAISFVHDKNSFNILSAIQKYFGDIEMTRVPTDDWDEVEKIVAKVLAD", "note": "[L327V;K477A;K481A]", "effect of a mutation on the interaction": "disrupting interaction"}
    ]}
  ]
}
